Biological target: T1, Recombinant GST-IRTKS (mouse, UniProt Q9DBJ3 1-514)
T1 construct: IRTKS, cloned from a murine bone marrow library, subcloned into pGEX-6p-1; also called recombinant IRTKS; source: E. coli (pGEX-6p-1), recombinant
T1 sequence (looked up): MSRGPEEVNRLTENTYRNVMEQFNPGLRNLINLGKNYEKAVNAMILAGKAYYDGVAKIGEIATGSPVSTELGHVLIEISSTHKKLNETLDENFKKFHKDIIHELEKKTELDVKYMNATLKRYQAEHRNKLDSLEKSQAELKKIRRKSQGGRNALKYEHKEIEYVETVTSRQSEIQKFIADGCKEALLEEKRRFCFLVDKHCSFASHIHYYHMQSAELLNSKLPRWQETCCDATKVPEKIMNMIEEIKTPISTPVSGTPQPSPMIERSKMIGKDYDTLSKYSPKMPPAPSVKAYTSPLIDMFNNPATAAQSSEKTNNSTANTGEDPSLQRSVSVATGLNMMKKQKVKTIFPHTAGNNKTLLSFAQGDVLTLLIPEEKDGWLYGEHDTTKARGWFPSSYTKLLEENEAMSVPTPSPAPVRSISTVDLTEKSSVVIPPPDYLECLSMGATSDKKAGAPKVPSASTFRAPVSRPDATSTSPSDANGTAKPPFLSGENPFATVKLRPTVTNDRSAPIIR
Assay: pull-down; GST pull-down: recombinant GST-tagged IRTKS or its truncations incubated with the recombinant partner
Details: both partners purified

binding result: binds
B1: Recombinant PCBP2 (natural protein, mouse, UniProt Q61990 1-362, looked up)
chain: MDTGVIEGGLNVTLTIRLLMHGKEVGSIIGKKGESVKKMREESGARINISEGNCPERIITLAGPTNAIFKAFAMIIDKLEEDISSSMTNSTAASRPPVTLRLVVPASQCGSLIGKGGCKIKEIRESTGAQVQVAGDMLPNSTERAITIAGIPQSIIECVKQICVVMLESPPKGVTIPYRPKPSSSPVIFAGGQDRYSTGSDSASFPHTTPSMCLNPDLEGPPLEAYTIQGQYAIPQPDLTKLHQLAMQQSHFPMTHGNTGFSGIESSSPEVKGYWAGLDASAQTTSHELTIPNDLIGCIIGRQGAKINEIRQMSGAQIKIANPVEGSTDRQVTITGSAASISLAQYLINVRLSSETGGMGSS
notes: PCBP2, cloned from a murine bone marrow library; source: recombinant (E. coli constructs in pGEX-6p-1 and pET-28a are described)
